Data: publication PMC9976893, “Dynamic states of eIF6 and SDS variants modulate interactions with uL14 of the 60S ribosomal subunit” (Nucleic Acids Research, 2023)

B1: uL14 peptide (aa 121-140) with S138 to A substitution (peptide)
peptide: VAKECADLWPRIASNAGAIA
notes: also called site-specific mutant peptide S138
B2: uL14 peptide (aa 121-140) with alanine substitution of D127 (peptide)
peptide: VAKECAALWPRIASNAGSIA
notes: also called site-specific mutant peptide D127
B3: uL14 peptide (aa 121-140) with alanine substitution of N135 (peptide)
peptide: VAKECADLWPRIASAAGSIA
notes: also called site-specific mutant peptide N135
B4: uL14 peptide (aa 121-140) with alanine substitution of R131 (peptide)
peptide: VAKECADLWPAIASNAGSIA
notes: also called site-specific mutant peptide R131

Molecular target: recombinant full-length human eIF6 (human, UniProt P56537 1-245)
Experiment: SPR; eIF6 immobilised on a CM5 chip by NHS/EDC chemistry (4913 RU); peptides injected at 0-500 μM (1:2 dilutions) in 20 mM HEPES pH 7.4, 150 mM NaCl, 0.01% BSA, 0.002% Tween 20; 25 μl/min; BIAcore S200; profiles did not obey a 1:1 model
Details: both partners purified

Percent reduction of binding against the uL14-WT peptide at 0.5 mM, ~50%:
B1
B2
B3
B4
